Results from the DeepSol protein solubility set.

Assay: soluble on expression in E. coli; label from the status in PepcDB or PDB records

Sequence | soluble on expression in E. coli
MSLRKKGPVVLGKFWIYWCEKCNVPLIGDTCSIHGKDSVFKITLTPPGDVRFAFPKDIELIREVFREHYGVDLGELLEGKIVLLNKIPGEDDSYEIIFDGFIFGIISFNPRKLKWKPGLKEEGAKLLWEKFGKSLKKWVIIDRGAVEPVKNGANVLPVGVIEAEESIRRGDEVIVVSEDGEVVGVGIAKKDYNELINPQARGTGVKMKRKSKGSGKRLNGRKATIKDVIKANSAELEKKVREARNFMRSVAEKFKLPVAVAFSGGKDSLAVLGLAMEEFNNFTVFFNNTGIEFPETVEYVMKLREKYKNLNFIIADAGDAFWRAINIFSPPGMDYRWCCKVTKLGPITLAIRKHFPNGVLMFVGQRKFESFKRYKQGRVWKNKWVPNEIGAAPIFHWTALEVWLYIFSRGLEYNPLYEKGIDRIGCFLCPSQSLAEIQRLKEEKPELWEKWYRELEKWRKRLGLPREWIEYGFWRWRRVGRREKVLAKELGVEIPEERSWEVIKFDIKEEEGKYIVRPSTKLNLTRIREVAPILGNVEEGDNYLKAGENIFDKDKNVIISPSLEEAYSSVLLLKRAYECVGCGVCITSCPEEAIELDEKRKKIVVSLEKCTHCRECMNVCPLVVIKGVDNILEGHHHHHH | not soluble
MSLGIAGTNTVRLQVYTNLKTFKSGDEISDGWVAKFHTDGDYIKWFAIENEDSLEGKEIKLFDTYKVDYTGTIKEKEKGKVTYAVLKAYVAIDPLERQYKELTLGIGDEIEDTAYSIKDVDVEFEPKETYIPKKLTEPITVLDTEIMEQGLENVDSNLILVGGPVVNKVTAALAEDLGVPTTYDEWKEKFGTGADSGQIIYKEKCSKIGGYGVLLVAGTDREGTRAAAEALLEYISKLEGHHHHHH | soluble
HGPKTGTPETKTVEIPFETKREFNPKLQPGEERVKQEGQPGSKTITTPITVNPLTGEKVGEGQPTEEITKQPVDKIVEFGGEK | soluble
MKRILIVTGQSGSGKSSALQVLEDLGYYCIDNLPLALLPEIVAKLDHENNLEQLALGVDVRSTRADMQEFDLVFEQLQKHGTVDVIYLTTQDQELIARFSASRRPHPLASRFKSLNECIQEEKQLLLPIQFRSTVHIDTTDKSVHDLKHTLLSKLGQSDKLILILQSFGYKHGIPLDADYVFDVRHLPNPHWDLELRRFSGLDEPVRRFLESSDQTNEMFDDIFHFLDKWLPVFAEGHRHYMTVSIGCTGGQHRSVYIVDRLKKALEAKWSIQVLHREMKHWS | not soluble
MIKVVGLGPGSKNALTLGTLEAVKNSQNIFFRTKKHPVVEYFDEIGIKYSTYDDKYETGESFDEVYDFIARDLVSKAKELKDIVYAVPGHPLVAEKSVQILIELCEKENIKVDIVPAVSFIDALMESLKIDPVKGLKIVDAFDIKNQILDKRLGIVITQVYNSFIASDVKLALLEYYKDDTEIYFVRAAGIENEESVRKIPLYELDRQSDIDYLTSVYVPCDINNNKDFYDLLNIMEILRGENGCPWDREQSHDTIKRALIEECYEAVEAIEKNDDDMMVEELGDVLFQVVFHAKIGKDEGYFNINDVISGICNKMIERHPHVFKNEQIKNSTEVLQKWDEIKRKQQDLNSYTEEMKHIPKILPALIRAEKVQKKASKVGFDFRNVEEALDKVLEETREVKDVYKGIIRDRIAEEVGDLIFSVVNIARLLDIDSEFALNYTIDKFIKRFYYIEKAAKDKNLKIESMSLEEMNALWDEAKLKIQ | not soluble
VTLAAEPHPAPPQQPTVAWSEPDVDRRVEFWPTVAIRSALESGDIATWQRIAAALKRDPYGRTARQVEEVLEGIPATGIANAFWEVLDRARTHLDANERAEVARQVGLLLDRSGLQRQEFASRIGVTAQDLTAYLDGIVSPSASLMIRMRRLSDRFVRAKSVRAADS | soluble
MFLKILPRIRRPTRSYAAVLAARHEGFAKVMQSDLMAFENFLGQDAVKKDDITNHTTDWTGQFKGPGSVVLYPKSTEEVSAILAYCSKNKLAVVPQGGNTGLVGGSIPVHDEVVISMNKINKQFSFDDTMGILKCDSGFILEDLDNKLAKLGYMMPFDLGAKGSCQIGGNIATCAGGIRLIRYGSLHAHLLGLTVVLPDEHGTVLHLGSSIRKDNTTLHTPHLFLGSEGQLGVITSVTMTAVPKPKSVQSAMLGIESFKKCCEVLKLAKSSLTEILSSFELLDDATMECLKTNLGLHPVLNAPTPFSILVETSGSNEDHDMEKMSAFLDECLSKNLIIDGVLAGSSAEATKMWQLRESAPLAVTRDGYVYKHDVSLPLENYYELTNVMKERCGSLAKRIVTYGHLGDGNTHLNITSEKHNEELEKLLYPFLYEWVVDHGGSISAEHGIGQLKLPYSTFGKDPEERLLTKKLKNIFDPNGILNPYKTI | not soluble
MTSHKRFCLSSRSPSYHTTELSLPLYIKFISWDFDCFQVDDVGFRPIFSAKTPNSPFTVEILRSGISGIVFDERETNTTANDGRMNFAMEYIIDKLLGDRCVPITVETLQISVDRVHYIFSKNLNMICKNLDVSIIETGVTLDTILHTSSYPLKSLSLSNTWAFAHPIILTAELLIVPTSDHFHRITNARVHAISLSGDFKLFIYEWLENGREIGTEFTIGGFRGRDYAKKMVCDIKEEFDERFQVVRRSHFPLSIAIKMNDFSEIYVFYDDIMERSKVYFKVQPTQF | not soluble
MPTPAYIKIVGQTQGNITAGAFTADSVGNVFQQGHEDQILVQEIKHEVTTPTDPQSGQPSGQRVHKPFIFTSSLNKATPLMYQALATGEMLPTVEVSWYRTSSEGKQEHFFTTTLEDATIVSINTVLPHALDKDNENYTQLVEVSLAYRKITWAHDVANTEGSDDWRAPAA | not soluble
MTIFQFPQDFMWGTATAAYQIEGAYQEDGRGLSIWDTFAHTPGKVFNGDNGNVACDSYHRYEEDIRLMKELGIRTYRFSVSWPRIFPNGDGEVNQEGLDYYHRVVDLLNDNGIEPFCTLYHWDLPQALQDAGGWGNRRTIQAFVQFAETMFREFHGKIQHWLTFNEPWCIAFLSNMLGVHAPGLTNLQTAIDVGHHLLVAHGLSVRRFRELGTSGQIGIAPNVSWAVPYSTSEEDKAACARTISLHSDWFLQPIYQGSYPQFLVDWFAEQGATVPIQDGDMDIIGEPIDMIGINYYSMSVNRFNPEAGFLQSEEINMGLPVTDIGWPVESRGLYEVLHYLQKYGNIDIYITENGACINDEVVNGKVQDDRRISYMQQHLVQVHRTIHDGLHVKGYMAWSLLDNFEWAEGYNMRFGMIHVDFRTQVRTPKESYYWYRNVVSNNWLETRR | soluble
MWQAISQQLSDTLLFEYQITEKVRLSGGDISESYMINDGEQRYFVKINDREFLHKFEVEAESLHLLRETSTIFVPEVVLVGKTKNNAFIILNYLPTKPLDDPENSFKFGQQLAQLHQWGEQKEFGFDTDNYLGSTLQPNQWHKKWCMFFAEQRIGWQLQLLKEKGVTLVDIDDFIDVVKQLLANHTPEPSLLHGDLWNGNVALTAFGPICFDPACYWGDRECDIAMTELFGGFQPEFYQGYESVMPLLPGYHERKDIYNLYHILNHCNLFGGHYLEQAQLTINKIISYLEHHHHHH | soluble
MRVLHVCSELFPLLKTGGLADVIGALPAAQLAEGADVRIILPAFPDLRRGIPETVLVREIDTFAGRVALRYGHYRGIGIYLIDAPALYDRAGSPYHDASLYAYSDNYLRFALLGWMACELACGLDGYWRPEVVHAHDWHAGLTCAYLAARGRPARSVFTVHNLAYQGLFSADHLSELHLPAEFFQIYGLEFYGQISYLKAGLFFADHVTTVSPTYAKEITQPAFGYGMEGLLQALARQGRLTGILNGVDSDIWDPQSDTLLPTRYDAENLQAKAINKTHLQTAMGLQLAENKPIFAVVSRLTVQKGLDLVLEALPELLALGGQLVVLGSGDATLQEAFLAAAAEHSGQVGVQIGYHEAFSHRIIAGSDVILVPSRFEPCGLTQLYGLKYGTLPLVRHTGGLADTVVDCALENLADGSASGFVFNECEAQALVKAIRRAFVLWSRPKHWRHVQRHAMRLDFGWQLAAVDYLSLYRRL | not soluble
MGHHHHHHSHMDVVKEIMAAIKQYETIIIHRHQRPDPDAIGSQVGLAELLRASFPEKNIYQVGGPVEGLEFLAEMDVITDDVYRGALVIVTDTANAPRISDARFSLGDQLIKIDHHPNDEPYGDLVWVNTNASSCSEIIVDFWQQHLAELTMTDNAARLLYAGIVGDTGRFLYPSTSAHTLAVAAQLRTFNFNAADLNRELDQMPLKVAKLAGYIYQNLEIDANGAARVVLPQSILNSYDIVDSETAAIVSMPGKIEDVLSWAIFVEQPEGYYRVRLRSKGPIINTIAKKHHGGGHPLASGANARDAAEIEVIYQEIQAACQEWAQK | soluble
MSLIRWCFTMKLAVIGGGDLQDSNHSPINERLIELTNKQYPKVLFIPTASHDDESYIKLFLDTFEKQLHCDVQILGIIADTPSKYEIDEMIQSADLIYLGGGNYIQMVTEWKEHKLDEKLLLALEQGTLIAGYSAGAMCWFTSSIRSDYEGSGYIESNGWGIVNKRFCPHYNQLNRMNAFHSFLQNHQGNIEGIALEDNCALYITEESFEIIGEPEKAWEFYMSDNKLIRQHFDITLKSYLEGHHHHHH | not soluble
MTGNVLNYYAGGNTARGFHNLYEENLKGLDRLFILKGGPGTGKSSLIKAIGREWIEKGYDIEFLHCSSDNKSVDGVIIPKLKVGIVDGTSPHVIEPKMPGVVEEYINLGIAWDSDKLRKQKLEIERFVSEASKAFQSAYARFKEALVIHDEWEKIYIDNIDFNKANELTNQLIQKLFADKSGRQSLVKHRFLGAATPKGAVDFVPNLTEGLPHRYFIKGRPGSGKSTMLKKLAKAAEEKGFEVEVYHCGFDPNSLDMVIVRELGFAIFDSTAPHEYFPSREGDEIIDMYALIVTPGTDEKYAKEIRDVSIQYKAKMNEAMSFLAKAKSIRDKLERIYIAAMDFSIVDAYKEEIQKEFERIAATVIEKQQ | not soluble
MSLTAYLHIGTTNTGNQEKQGFLMQNEEKLLQKAYIYPKSLRVANRHWALVDMVLELVQKEDILKKESVLSHITNERLLRAIENFKSESALHKDKKFIFSAEGIVWDFSTKKHVEILEKIMRELGFTQIYIIVYFRDTLGYLNSHCSQDHKNNMGYYSADFAPQDHPRKYIFDYEWICKTHAEVFGEENLIVRLLREDYVGGTLLKDFVYHLGLEWDESFVLKQTKNESFNLLGMELMSRLNQKDLKQDNLNSLLFMARRKFEGSKEKRLKFAVQKDIAKAYVDYFASSLEWVKNKYFPHKNSLFTPVNWEEYEQNYTLTHMLSKDWDDVADFIAQIIVSKNEIISSLKEQLELAREGHHHHHH | soluble
MQRHPTPNARNSLWRWTDAKHPLRVALNYVVIVLARISPSLHAKNWLLARIGVTVGDGVAWGLESTPDVFWPELVTVGDDAIIGYDATLLCHEFLHDEYRTGAVVVEDRAMIGAGAVVLPGVTIGADAQVAANSLVTADVPPGETVAGVPLEHHHHHH | not soluble
MGSDKIHHHHHHMTVMNAYQELESQGLIYSKEKSGYFVAEQIALKPLEQYSIVSLNSKIEINSLVFKYLKSIQHESVVPFGSAFPDSQLLAAPKLIQIMGQLARQRQSYDQTASLPPGNLALRKLIAQRYCMQGIQTDPDDIVITSGGLDALNLSLQAVAKPGDYILLQQTVFYGAWQAAERLGLKVITIPEHPQHGFDLEAFEQVIHTYPIKVCWLMLNSHNPIGFTVSDEIKYKIAKLLHEHQIYLIEDDVYEELYYGGQKPLSMKYFDQQNLVLHCSSFSKTLGAGFRVGWVYAGKFSDHIQHLQLMSTISVNALIQNALVEFLSHHHYEKHLRTLRLSLERYKKQFYHYLKQHLPAICEIYYYPSGYFLWVKLPHKLDSMQIYEELIQQDIGVAPSPLFSVLPAQQHYLRINCSFEWNEKIQAALDQVIKTIQQRVEASL | not soluble
GAMAQKNEDECAVCRDGGELICCDGCPRAFHLACLSPPLREIPSGTWRCSSCLQATVQEVQPRAEE | soluble
MNEYFFPKLTAVEALAPYRLRTTWSTGEVLEVDVGDILRKIPDLAPILDPEAFARVHIAEWEGSVEWFDTEFGRDNVYAWAKEQAGEVSHEMFGDWMHRNNLSLTTAAEALGISRRMVSYYRTAHKIIPRTIWLACLGWEATRPETKTLPRTLPAAYAKGVSASLS | soluble
